Experimental data as given in patent publication US9932382B2, “Kv2.1 channel-derived peptides and methods of use” (University of Pittsburgh—Of the Commonwealth System of …, priority 2014, dated 2018).

Test system: neurons
Assay: Current clamp / dynamic clamp electrical properties of neurons
Format: cell-based
Procedure: For electrophysiological experiments, mixed cortical neuronal/glial cultures were prepared from embryonic day 16 (E16) Sprague-Dawley rats (Charles River Laboratories, Wilmington, Mass., USA). Donor rats were euthanized by gradual CO2 exposure. Cortices were dissociated with trypsin, and the resultant cell suspension, adjusted to 670,000 cells per well, was plated on glass coverslips in 6-well plates as described previously (Hartnett et al., J Neurochem 68, 1836-1845, 1997). Non-neuronal cell proliferation was inhibited after two weeks in culture with 1-2 μM cytosine arabinoside, and cultures utilized at three to four weeks in vitro. For neuronal transfection, cells were treated for five hours in serum-free medium with 2 μL LIPOFECTAMINE™ 2000 (Invitrogen, Carlsbad, Calif.), 50 μL Optimem (GIBCO, Grand Island, N.Y.), and 1.5 μg DNA per well. For CHO cell transfections, cells were plated on coverslips in 24-well plates at a density of 5.6×10^4 cells per well for electrophysiological measurements or in 100 mm dishes at a density of 1.7×10^6 cells per dish for biochemical studies. Cells were treated for 3-4 hours in serum-free medium with a total of 1.2 μL LIPOFECTAMINE™ and 0.28 μg DNA per well for electrophysiology, or 55.1 μL LIPOFECTAMINE™ and 7.33 μg DNA per dish for biochemistry. Following transfection, cells were maintained in F12 medium containing fetal bovine serum at 37° C., 5% CO2 for 24 hours prior to experimentation.
Current recordings were performed on eGFP-positive co-transfected neurons or CHO cells using the whole-cell patch clamp configuration technique as described previously (McLaughlin et al., J Neurosci 21, 3303-3311, 2001). The intracellular (electrode) solution contained (in mM): 100 K-gluconate, 11 EGTA, 10 KCl, 1 MgCl2, 1 CaCl2×2H2O, 10 HEPES; pH adjusted to 7.2 with concentrated KOH; 2.2 ATP and 0.33 GTP were added and the osmolarity was adjusted to 280 mOsm with sucrose. The extracellular solution contained (in mM): 115 NaCl, 2.5 KCl, 2.0 MgCl2, 10 HEPES, 10 D-glucose; 0.25 μM tetrodotoxin; pH adjusted to 7.2. Measurements were obtained under whole-cell voltage clamp with an Axopatch-1D amplifier and pClamp software (Molecular Devices, Sunnyvale, Calif.), using 2-3 MΩ recording electrodes. Electrodes were pulled from 1.5 mm borosilicate glass (Warner Instruments, Hamden, Conn.) with a model P-97 mechanical pipette puller (Sutter Instruments, Novato, Calif.). Series resistance was partially compensated (80%) in all cases. Currents were filtered at 2 kHz and digitized at 10 kHz with a Digidata 1440A Digitizer (Molecular Devices). K^+ currents were evoked with incremental 10 mV voltage steps to +80 mV from a holding potential of −80 mV. To determine current density values, steady-state current amplitudes were measured 180 msec after the initiation of the +10 mV step and normalized to cell capacitance. For current clamp experiments, the intracellular (electrode) solution contained (in mM): 94 K-gluconate, 30 KCl, 10 phosphocreatine di-tris salt, 10 HEPES, 0.2 EGTA, 4 ATP, 0.3 GTP; pH adjusted to 7.3 with concentrated KOH. […] By repeatedly adjusting the scaling factor k, an automated binary search algorithm determined threshold synaptic conductance (thresh-gsyn), the conductance required to reach firing threshold (Kullmann et al., J Neurophysiol 91, 542-54, 2004).
It was next evaluated whether C1a441-522 was sufficient to protect neurons against oxidative injury. […]

B1: C1a441-522: distal segment of C1a, residues 441-522 of rat Kv2.1 (protein, UniProt P15387 441-522, looked up, fragment)
chain: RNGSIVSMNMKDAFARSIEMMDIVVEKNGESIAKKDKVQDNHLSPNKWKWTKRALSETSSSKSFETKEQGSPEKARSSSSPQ
  overall effect of expression on neurons: relatively innocuous to neurons
1 sec depolarizing current steps, 15-120 pA
  firing frequency as a function of depolarizing current versus vector-expressing neurons: small but significant increase
Current clamp
  input resistance versus vector-expressing neurons: no differences
  resting membrane potential versus vector-expressing neurons: no differences
Dynamic clamp
  threshold synaptic conductance versus vector-expressing neurons: no differences
